Key:
SEC = molecular target: the molecule itself; assay: SEC
GST-TBK1 = molecular target: T1, GST-TBK1 (human, UniProt Q9UHD2 1-729); assay: pull-down
T1 sequence (looked up): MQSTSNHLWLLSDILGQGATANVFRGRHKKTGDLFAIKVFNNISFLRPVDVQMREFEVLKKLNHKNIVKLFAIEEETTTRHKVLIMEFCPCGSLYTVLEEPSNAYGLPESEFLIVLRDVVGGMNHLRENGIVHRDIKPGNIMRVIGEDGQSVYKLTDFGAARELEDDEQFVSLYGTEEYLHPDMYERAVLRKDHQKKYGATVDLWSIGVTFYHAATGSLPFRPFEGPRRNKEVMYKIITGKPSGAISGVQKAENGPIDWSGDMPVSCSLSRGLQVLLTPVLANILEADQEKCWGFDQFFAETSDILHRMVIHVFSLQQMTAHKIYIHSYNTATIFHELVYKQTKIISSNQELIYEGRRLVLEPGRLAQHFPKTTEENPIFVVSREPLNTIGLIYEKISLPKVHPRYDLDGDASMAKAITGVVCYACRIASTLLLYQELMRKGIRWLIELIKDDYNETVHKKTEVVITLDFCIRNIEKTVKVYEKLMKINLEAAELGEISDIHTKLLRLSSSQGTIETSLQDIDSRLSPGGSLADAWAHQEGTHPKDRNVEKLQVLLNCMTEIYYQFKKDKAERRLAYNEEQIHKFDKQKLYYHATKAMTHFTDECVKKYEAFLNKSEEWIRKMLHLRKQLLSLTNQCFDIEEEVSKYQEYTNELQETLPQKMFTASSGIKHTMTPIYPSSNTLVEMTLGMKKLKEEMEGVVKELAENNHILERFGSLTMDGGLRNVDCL

Flag-TBK1 = molecular target: T2, Flag-TBK1 (human, UniProt Q9UHD2 1-729); assay: pull-down
T2 sequence (looked up): T1 sequence (looked up)

## VTVGSLKTSAVPSTSTMSQEPELLISGMEKPLPLRTDFS (domain or fragment, human, UniProt Q86WV6 341-379, looked up) [His6-STING (341–379)]
SEC
  binding result: binds
GST-TBK1
  binding result: binds

## VTVGSLKTSAVPSTSTMSQEPELLIAGMEKPLPLRTDFS (domain or fragment, human, UniProt Q86WV6 341-379, looked up) [His6-STING (341–379) S366A]
SEC
  binding result: binds

## VTVGSLKTSAVPSTSTMSQEPELLIAGMEKPLPLRTDFS (domain or fragment, human, UniProt Q86WV6 341-379, looked up) [GST-STING (341–379) S366A]
Flag-TBK1
  binding result: binds

## VTVGSLKTSAVPSTSTMSQEPELLISGMEKPLPARTDFS (domain or fragment, human, UniProt Q86WV6 341-379, looked up) [His6-STING (341–379) L374A]
SEC
  binding result: binds

## VTVGSLKTSAVPSTSTMSQEPELLISGMEKPLPARTDFS (domain or fragment, human, UniProt Q86WV6 341-379, looked up) [GST-STING (341–379) L374A]
Flag-TBK1
  binding result: binds

## VTVGSLKTSAVPSTSTMAQEPELLISGMEKPLPLRTDFS (domain or fragment, human, UniProt Q86WV6 341-379, looked up) [GST-STING (341–379) S358A]
Flag-TBK1
  binding result: binds

## VTVGSLKTSAVPSTSTMSQEPELLISGMEKPLPLRTDFS (domain or fragment, human, UniProt Q86WV6 341-379, looked up) [GST-STING (341–379)]
Flag-TBK1
  binding result: binds

Source: PMC3549669 (Science signaling, 2012)
